Experiment [1] has as its system human adipose stem cells. The experiment can be described thus: Scratch wound-healing assay. Conditions: for migration of the adipose stem cells, scratch wound-healing assay: IL-4 or IL-12B in serum-free medium for 3 days, FIG. 7 (B to E). It is filed as cell-based. As to the method: (§1) Human adipose stem cells were isolated via liposuction of subcutaneous fat, as described in a previous study: Briefly, the fat was washed with phosphate-buffered saline (PBS), 0.075% collagenase was added, and the mixture was incubated for 45 minutes at 37° C. with gentle shaking. After centrifugation, the pellet was filtered through a 100 am nylon mesh. Then, the cells were cultured with an essential medium containing alpha Minimum Essential Medium (α-MEM) (Hyclone, Logan, Utah, USA), 10% fetal bovine serum (FBS) (Gibco, Carlsbad, Calif., USA), and 1% antibiotics (Gibco) for three passages. Then, the medium was changed to contain α-MEM, 10% FBS, and 1% penicillin/streptomycin (Gibco), and the cells were cultured for four passages. The adipose stem cells at passages 5 to 7 were used for all experiments. Characterization of the adipose stem cells was performed using flow cytometry. The adipose stem cells were positive for CD44, CD73, CD90, CD105, human leukocyte antigen (HLA)-I, and podocalyxin-like protein (PODXL), and were negative for hematopoietic markers such as CD34 and CD45. A multipotent differentiation potential was examined, as described in a previous study; as a result, the adipose stem cells could be differentiated into adipocytes, osteocytes, and chondrocytes. The adipose stem cells were maintained at 37° C. in a humidified 5% CO2 incubator.
The adipose stem cells were seeded into 6-well plates and cultured to confluence. A sterile 1 ml pipette tip was used to scratch the cell monolayer. The cultures were then washed with PBS to remove de-plated cells, and the cells were again cultured with udenafil, or IL-4, and IL-12B in a serum-free medium for 3 days. Cell migration into the scratched area (wound closure) was visualized using a ZEISS™ Observer D1 microscope. Multiple images were acquired per well, and the average cell number within the wound was monitored over 3 days.

Experiment [2] deals with human adipose stem cells. The experiment can be described thus: Tube formation assay using MATRIGEL
Format: cell-based. Conditions: after 16 hours; FIG. 6(E). On the procedure:
as §1, with “chondrocytes. […]” for “chondrocytes.”, “number of tubes was analyzed under” for “adipose stem cells were maintained at 37° C. in”, “ZEISS™ Observer D1 microscope.” for “humidified 5% CO2 incubator.”

Experiment [3] has as its system human adipose stem cells. Nature of the experiment: Transwell migration assay. Format: cell-based. Conditions: migration 1 day; for migration of the adipose stem cells, transwell migration assay: IL-4 or IL-12B treatment for 3 days, FIG. 7 (B to E). As to the method: as §1
The adipose stem cells were seeded into 60 mm plates and treated with udenafil IL-4, or IL-12B for 3 days. The adipose stem cells starved for 1 day (1.5×10^4cells/well) were suspended in a serum-free medium and seeded on the upper side of transwell membrane inserts (BD Falcon, CA, USA), which was pre-coated with MATRIGEL™ (1/60 dilution, BD MATRIGEL™ matrix, CA, USA). The normal serum With FBS was added in the lower side thereof as a chemoattractant. […] The inserts were stained with […] solution (Sigma-Aldrich) for 20 minutes, and the cell number was analyzed under a ZEISS™ Observer D1 microscope. Multiple images (15 to 20) were acquired per insert, and the average cell counts were calculated.

The subject of experiment [4] is IL-4 mRNA. Nature of the experiment: qPCR of IL-4 expression level in udenafil-treated adipose stem cells. Conditions: adipose stem cells treated with 1 μM udenafil for 3 to 4 days, versus non-udenafil-treated adipose stem cells (Control); FIG. 3. It is filed as cell-based. As to the method:
(§2) First, adipose stem cells were preconditioned with udenafil to prepare stimulated adipose stem cells. Adipose stem cells were inoculated on a […] and cultured. The following day, 1 μM udenafil was added to the culture medium and additional culture was performed for 3 to 4 days. Subsequently, adherent cultured adipose stem cells were detached with trypsin, and then obtained by centrifugation. The obtained adipose stem cells were prepared by being mixed with 100 μl of PBS.
(§3) Specifically, as performed in Example <1-1>, adipose stem cells were treated with udenafil and cultured. After completion of the culture, the cells were obtained and RNA was extracted from the cells by treatment with TRIZOL™ (Invitrogen, NY, USA). Using the extracted RNA as a template, cDNA was synthesized through RT-PCR using oligodT and HELIXCRIPT™ Thermo Reverse Transcription System (NANOHELIX, WI, USA). The synthesized cDNA and BrightGreen qPCR master mix-ROX (abm, NY, US) were added to 96-well qPCR assay Kit for identifying growth factors [RT^2 First Strand (DNA Synthesis Kit (QIAGEN, MD, USA)], to perform a qPCR reaction. The results obtained by performing the qPCR reaction were analyzed using a program which corresponds to the RT^2 First Strand cDNA Synthesis Kit and is provided by QIAGEN, and IL-4 and IL-12B expression levels in the udenafil-treated adipose stem cells were respectively identified.
Background: Quantitative PCR measures a nucleic acid by following its amplification.

The test system of experiment [5] is human adipose stem cells. Nature of the experiment: Cell growth assay (live cell number, trypan blue). It is filed as cell-based. Conditions: 7 days; for proliferation of the adipose stem cells (live cell number): IL-4 or IL-12B 100 ng/ml, FIG. 7(A). On the procedure:
as §1
For cell growth assay, the adipose stem cells were seeded in 12-well plates, with 5×10^3 cells/well, treated with udenafil (0.1, 0.5, or 1 μM), and incubated for 7 days. The adipose stem cells were also seeded in 12-well plates, with 1×10^4 cells/well, treated with a synthetic peptide of IL-4 or IL-12B (100 ng/ml), and incubated for 7 days. The cells were then trypsinized, stained with trypan blue (Sigma-Aldrich, MO, USA), and counted each day using a hemocytometer.

For experiment [6], the system named is IL-12B mRNA. Nature of the experiment: qPCR of IL-12B expression level in udenafil-treated adipose stem cells. Conditions: adipose stem cells treated with 1 μM udenafil for 3 to 4 days, versus non-udenafil-treated adipose stem cells (Control); FIG. 3. Format: cell-based. On the procedure: as §2, §3
The subject of experiment [7] is dermal papilla cells (DP cells). The experiment can be described thus: Growth of dermal papilla cells after treatment with IL-4 or IL-12B. It is filed as cell-based. Conditions: FIG. 8.
The test system of experiment [8] is vibrissal hair follicle cells. The experiment can be described thus: Vibrissal hair follicle culture, length of hair grown. Format: cell-based, mouse. Conditions: 5 ng/ml or 20 ng/ml, 3 days culture, versus non-treated control; FIG. 5. As to the method: In addition, the vibrissal hair follicle of 5-week-old C57b1/6 mice was dissected to obtain hair follicle cells, and the hair follicle cells were transferred to 48-well plates. Then, treatment with 5 ng/ml or 20 ng/ml of an IL-4 peptide or an IL-12B peptide was performed and culture was performed for 3 days. After completion of the culture, the hair follicle tissue was photographed and a length of hair grown therefrom was measured.

Experiment [9] concerns C3H mice. Nature of the experiment: Hair growth effect of IL-4 or IL-12B peptide applied to dorsum of mice. It is filed as in vivo, mouse. Conditions: 100 ng/ml applied to dorsum once a day for 13 to 14 days, FIG. 4; for maturation of hair follicle tissue: H&E staining. As to the method: Specifically, the dorsal hair of 6-week-old C3H mice was completely removed, and 100 ng/ml of an IL-4 peptide or an IL-12B peptide was applied to the dorsum of the mice once a day. It was identified whether the hair was growing while applying the IL-4 peptide or IL-12B peptide for 13 to 14 days. Then, a photograph was taken and the dorsal skin tissue was obtained.

As to `CCCOc1ccc(S(=O)(=O)NCCC2CCCN2C)cc1-c1nc(=O)c2c([nH]1)c(CCC)nn2C` (centres unmarked) [udenafil], in experiment [1] (udenafil in serum-free medium for 3 days, FIG. 6 (B to D)), the “ASC migration, scratch wound-healing assay” value is given as “increases ASC migration in both assays in a dose-dependent manner”. Further, the “number of nascent tubes (tube-forming activity)” value in [2] is “increases the number of nascent tubes”. Besides, the “ASC migration, transwell migration assay” value in experiment [3] (udenafil treatment for 3 days, FIG. 6 (B to D)) was “increases ASC migration in both assays in a dose-dependent manner”. The “IL-4 mRNA expression level” value in experiment [4] was “about 4 fold”. Further, the “growth of adipose stem cells (live cell number)” value in experiment [5] (udenafil 0.1, 0.5 or 1 μM, FIG. 6(A)) is “increases growth of adipose stem cells in a time- and dose-dependent manner”. Moreover, the “IL-12B mRNA expression level” value in [6] was “about 6 fold”.

B1: IL-12B peptide: cytokine whose expression is increased in udenafil-treated adipose stem cells; called IL-12B peptide, synthetic peptide of IL-12B, IL-12B protein (protein, UniProt P29460 23-328, looked up)
Interleukin-12 subunit beta: IWELKKDVYVVELDWYPDAPGEMVVLTCDTPEEDGITWTLDQSSEVLGSGKTLTIQVKEFGDAGQYTCHKGGEVLSHSLLLLHKKEDGIWSTDILKDQKEPKNKTFLRCEAKNYSGRFTCWWLTTISTDLTFSVKSSRGSSDPQGVTCGAATLSAERVRGDNKEYEYSVECQEDSACPAAEESLPIEVMVDAVHKLKYENYTSSFFIRDIIKPDPPKNLQLKPLKNSRQVEVSWEYPDTWSTPHSYFSLTFCVQVQGKSKREKKDRVFTDKTSATVICRKNASISVRAQDRYYSSSWSEWASVPCS
On to B1, for which the “growth of the DP cells” value in [7] is “increased growth of the DP cells”. The “migration of the adipose stem cells, scratch wound-healing assay” value in [1] is reported as “increase migration of the adipose stem cells in a dose-dependent manner”. Also, the “length of hair grown from the hair follicle cells” value in experiment [8] is listed as “longer than that of the non-treated control”. Moreover, in experiment [3], the “migration of the adipose stem cells, transwell migration assay” value is listed as “increase migration of the adipose stem cells in a dose-dependent manner”. Also, the “proliferation of the adipose stem cells (live cell number)” value in experiment [5] is “increases proliferation of the adipose stem cells in a time- and dose-dependent manner”. For the same molecule, in [9], the hair growth effect entry is “increased hair growth effect” and the “maturation of hair follicle tissue” value is reported as “significantly maturated”.

B2: IL-4 peptide: cytokine whose expression is increased in udenafil-treated adipose stem cells; called IL-4 peptide, synthetic peptide of IL-4, IL-4 protein (protein, UniProt P05112 25-153, looked up)
Interleukin-4: HKCDITLQEIIKTLNSLTEQKTLCTELTVTDIFAASKNTTEKETFCRAATVLRQFYSHHEKDTRCLGATAQQFHRHKQLIRFLKRLDRNLWGLAGLNSCPVKEANQSTLENFLERLKTIMREKYSKCSS
Regarding B2, in [7], the “growth of the DP cells” value was “increased growth of the DP cells”. For the same molecule, the “migration of the adipose stem cells, scratch wound-healing assay” value in experiment [1] is “increase migration of the adipose stem cells in a dose-dependent manner”. For the same molecule, the “length of hair grown from the hair follicle cells” value in [8] is listed as “longer than that of the non-treated control”. In addition, in [3], the “migration of the adipose stem cells, transwell migration assay” value was “increase migration of the adipose stem cells in a dose-dependent manner”. The “proliferation of the adipose stem cells (live cell number)” value in experiment [5] was “not”. For the same molecule, in [9], the hair growth effect result is recorded as “increased hair growth effect” and the “maturation of hair follicle tissue” value is “significantly maturated”.

Source of the values: patent US11608490B2, “Composition for enhancing hair growth-inducing ability of adipose stem cells comprising udenafil as active ingredient” (INDUSTRY-ACADEMIC COOPERATION FOUNDATION, YONSEI UNIVERSITY, priority 2018, dated 2023).
